Measurements as given in IntAct's records for PubMed 35512704.

B1: Mothers against decapentaplegic homolog 4 (Homo sapiens), Q13485 (parent)
chain: MDNMSITNTPTSNDACLSIVHSLMCHRQGGESETFAKRAIESLVKKLKEKKDELDSLITAITTNGAHPSKCVTIQRTLDGRLQVAGRKGFPHVIYARLWRWPDLHKNELKHVKYCQYAFDLKCDSVCVNPYHYERVVSPGIDLSGLTLQSNAPSSMMVKDEYVHDFEGQPSLSTEGHSIQTIQHPPSNRASTETYSTPALLAPSESNATSTANFPNIPVASTSQPASILGGSHSEGLLQIASGPQPGQQQNGFTGQPATYHHNSTTTWTGSRTAPYTPNLPHHQNGHLQHHPPMPPHPGHYWPVHNELAFQPPISNHPAPEYWCSIAYFEMDVQVGETFKVPSSCPIVTVDGYVDPSGGDRFCLGQLSNVHRTEAIERARLHIGKGVQLECKGEGDVWVRCLSDHAVFVQSYYLDREAGRAPGDAVHKIYPSAYIKVFDLRQCHRQMQQQAATAQAAAAAQAAAVAGNIPGPGSVGGIAPAISLSAAAGIGVDDLRRLCILRMSFVKGWGPDYPRQSIKETPCWIEIHLHRALQLLDEVLHTMPIADPQPLD
partner: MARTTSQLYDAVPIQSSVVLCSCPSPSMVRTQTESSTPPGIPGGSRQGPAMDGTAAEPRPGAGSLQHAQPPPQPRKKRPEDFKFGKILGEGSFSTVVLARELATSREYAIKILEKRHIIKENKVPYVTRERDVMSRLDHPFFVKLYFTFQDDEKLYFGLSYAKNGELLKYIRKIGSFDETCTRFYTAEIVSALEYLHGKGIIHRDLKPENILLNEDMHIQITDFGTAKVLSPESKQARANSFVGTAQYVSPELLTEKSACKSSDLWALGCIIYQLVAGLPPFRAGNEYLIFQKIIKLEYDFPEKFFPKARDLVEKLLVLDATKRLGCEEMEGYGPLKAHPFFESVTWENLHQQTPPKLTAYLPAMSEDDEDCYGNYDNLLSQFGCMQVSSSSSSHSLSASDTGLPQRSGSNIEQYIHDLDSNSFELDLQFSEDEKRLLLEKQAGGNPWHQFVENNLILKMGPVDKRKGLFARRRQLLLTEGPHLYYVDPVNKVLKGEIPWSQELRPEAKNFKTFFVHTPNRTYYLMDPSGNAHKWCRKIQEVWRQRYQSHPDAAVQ
B2: Mothers against decapentaplegic homolog 4 (Homo sapiens), Q13485 (parent)
chain: B1 chain
partner: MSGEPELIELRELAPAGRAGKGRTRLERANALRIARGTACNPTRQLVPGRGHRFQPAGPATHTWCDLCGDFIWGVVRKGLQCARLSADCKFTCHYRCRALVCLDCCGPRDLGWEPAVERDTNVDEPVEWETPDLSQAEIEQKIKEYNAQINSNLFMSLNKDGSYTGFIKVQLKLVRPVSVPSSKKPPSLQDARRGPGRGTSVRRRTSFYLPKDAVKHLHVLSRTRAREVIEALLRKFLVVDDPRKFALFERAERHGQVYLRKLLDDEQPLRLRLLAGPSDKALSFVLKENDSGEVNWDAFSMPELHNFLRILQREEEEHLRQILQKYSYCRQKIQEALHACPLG
B3: Mothers against decapentaplegic homolog 4 (Homo sapiens), Q13485 (parent)
chain: B1 chain
partner: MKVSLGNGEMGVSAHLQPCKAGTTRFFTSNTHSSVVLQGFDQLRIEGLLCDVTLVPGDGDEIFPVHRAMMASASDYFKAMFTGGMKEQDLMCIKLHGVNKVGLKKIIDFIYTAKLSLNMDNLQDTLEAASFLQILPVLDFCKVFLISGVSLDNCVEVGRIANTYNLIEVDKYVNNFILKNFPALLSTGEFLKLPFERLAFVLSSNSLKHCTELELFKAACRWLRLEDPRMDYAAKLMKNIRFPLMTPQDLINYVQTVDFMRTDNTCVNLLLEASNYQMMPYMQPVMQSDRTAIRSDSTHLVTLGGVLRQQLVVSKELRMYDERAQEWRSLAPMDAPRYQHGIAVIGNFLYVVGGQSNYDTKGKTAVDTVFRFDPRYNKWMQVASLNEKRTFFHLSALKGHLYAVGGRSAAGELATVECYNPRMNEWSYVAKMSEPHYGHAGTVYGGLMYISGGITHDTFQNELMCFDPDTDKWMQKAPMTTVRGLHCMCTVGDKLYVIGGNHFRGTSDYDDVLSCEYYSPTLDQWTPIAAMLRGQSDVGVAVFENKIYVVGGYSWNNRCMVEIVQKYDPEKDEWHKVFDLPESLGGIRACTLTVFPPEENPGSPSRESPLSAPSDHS
B4: Mothers against decapentaplegic homolog 4 (Homo sapiens), Q13485 (parent)
chain: B1 chain
partner: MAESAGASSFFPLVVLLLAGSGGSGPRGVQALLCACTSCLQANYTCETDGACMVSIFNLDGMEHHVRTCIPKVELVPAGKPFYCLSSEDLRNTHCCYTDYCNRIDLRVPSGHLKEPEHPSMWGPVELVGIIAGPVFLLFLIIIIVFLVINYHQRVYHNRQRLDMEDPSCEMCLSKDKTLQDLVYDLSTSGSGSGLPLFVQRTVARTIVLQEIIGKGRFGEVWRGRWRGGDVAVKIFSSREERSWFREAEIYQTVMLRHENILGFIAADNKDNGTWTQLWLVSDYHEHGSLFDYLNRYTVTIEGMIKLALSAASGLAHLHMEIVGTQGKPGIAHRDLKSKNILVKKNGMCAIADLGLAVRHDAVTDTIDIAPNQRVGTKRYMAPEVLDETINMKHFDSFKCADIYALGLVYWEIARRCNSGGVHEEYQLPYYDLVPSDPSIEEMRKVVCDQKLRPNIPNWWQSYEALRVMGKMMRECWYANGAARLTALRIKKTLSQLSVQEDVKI

Variants of: B1
Settings: with pdpk1_human PDPK1, O15530

Row | Variant | effect of a mutation on the interaction
1 | R361H | with no effect

Variants of: B2
Settings: with rasf1_human RASSF1, Q9NS23

Row | Variant | effect of a mutation on the interaction
2 | D351H | with no effect

Variants of: B2
Settings: with rasf1_human RASSF1, Q9NS23
Remark: another data set of the same source

Row | Variant | effect of a mutation on the interaction
3 | G386D | with no effect

Variants of: B2
Settings: with rasf1_human RASSF1, Q9NS23
Remark: another data set of the same source

Row | Variant | effect of a mutation on the interaction
4 | R361C | with no effect

Variants of: B2
Settings: with rasf1_human RASSF1, Q9NS23
Remark: another data set of the same source

Row | Variant | effect of a mutation on the interaction
5 | R361H | with no effect

Variants of: B3
Settings: with klhl9_human KLHL9, Q9P2J3

Row | Variant | effect of a mutation on the interaction
6 | G386D | with no effect

Variants of: B3
Settings: with klhl9_human KLHL9, Q9P2J3
Remark: another data set of the same source

Row | Variant | effect of a mutation on the interaction
7 | G386D | increasing interaction strength

Variants of: B4
Settings: with acv1b_human ACVR1B

Row | Variant | effect of a mutation on the interaction
8 | G386D | with no effect

Variants of: B4
Settings: with acv1b_human ACVR1B
Remark: another data set of the same source

Row | Variant | effect of a mutation on the interaction
9 | G386D | increasing interaction strength

Variants of: B4
Settings: with acv1b_human ACVR1B
Remark: another data set of the same source

Row | Variant | effect of a mutation on the interaction
10 | R361H | with no effect

Variants of: B4
Settings: with acv1b_human ACVR1B
Remark: another data set of the same source

Row | Variant | effect of a mutation on the interaction
11 | R361C | with no effect
